Bridge positions count the residues as written; N and C are the ends. Ends that are not written are not given here.
What was measured:
TrkA = molecular target: T1, TrkA (Rattus norvegicus, UniProt P35739); test: Phospho-TrkA immunoblot in PC12 cells; assay type: cell-based
T1 construct: endogenous in cells; host or cells: PC12 (rat pheochromocytoma, ATCC)
Description: (§1) Immunoblotting experiments were conducted to test whether the chimeric polypeptides could, like NGF, induce autophosphorylation of TrkA and activation of its signal transduction pathways. PC12 cells were seeded in 6-well plates at a density of 2×10^6 cells/well and cultured in RPMI 1640 containing 0.5% FBS and 0.25% horse serum for 2 days. The low serum concentrations were necessary to reduce the basal levels of phosphorylation. The medium was refreshed two hours before beginning treatment. The cells were incubated with the polypeptides or NGF in serum-free medium for 15–20 min. The cells were then washed in PBS, lysed, and sonicated. The cell lysates were resolved by SDS-PAGE and transferred to a nitrocellulose membrane for immunoblotting. The primary antibodies used include Phospho-TrkA (Tyr490) antibody, Phospho-p44/p42 MAPK (Thr202/Tyr204) monoclonal antibody, and Phospho-Akt (Ser473) monoclonal antibody, all obtained from Cell Signaling Technology (Beverly, Mass., USA). Colorimetric detection was performed by standard techniques after using horse-radish peroxidase-conjugated secondary antibodies. In some experiments, TrkA tyrosine kinase inhibitors K-252a or AG879 (both from Calbiochem, La Jolla, Calif., USA) were used. In these cases, PC12 cells were incubated with 100 nM K-252a or 10 μM AG879 before addition of polypeptides or NGF.

Erk1 and Erk2 = test: Phospho-Erk1/Erk2 (p44/p42 MAPK) immunoblot in PC12 cells; assay type: cell-based, rat
Description: as §1

[1] = test system: dorsal root ganglia (DRG); test: Gene delivery in vivo, intrathecal injection, dorsal root ganglia; set-up: species or system rat; conditions: 3 days
Source text: In vivo gene delivery was studied by intrathecal injections of adult Wistar rats (8 weeks old, 180–200 g). The rats were anesthetized by intraperitoneal injection of sodium pentobarbital. After the skin around L4–L5 was exposed, the gene delivery complex was slowly injected into the subarachnoid space using a syringe. A slight tail movement accompanied correct placement of the needle. After injection, the syringe was left in place for five minutes to limit diffusion caused by backflow pressure. Multiple injections were sometimes required to deliver the full volume of the complex. After injection, the skin was closed with surgical clips and the animals were kept warm until they recovered. […] The lumbar segment of the spinal cord and the lumbar dorsal root ganglia were excised. The tissues were homogenized in 100–400 μl of Reporter Lysis Buffer (Promega) depending on size and subjected to three freeze-thaw cycles. The lysates were centrifuged at 14000 g for 5 min at 4° C. The supernatant was tested for luciferase activity using the Luciferase Assay System (Promega) in a single-tube luminometer (Berthold Lumat LB 9507). The readings were normalized by the total protein content of the lysates, as measured by the DC Protein assay (Bio-Rad).

primary cortical neurons = test: Gene delivery to primary cultures of cortical neurons; assay type: cell-based, rat
Description: Primary cultures of neurons were established from the cortices of embryonic Wistar rats at gestational day 20. Cortices freed of meninges were dissected and individual cells were dispersed mechanically by trituration of minced tissue in 3 ml DMEM medium supplemented with 2% FBS. The suspension was allowed to settle in a centrifuge tube. The cells in the supernatant were collected by centrifugation and resuspended gently in DMEM with 10% FBS. Viability of the cells was assessed prior to plating using trypan blue. Cells were plated onto microplates pre-coated with poly-L-lysine/laminin at a density of 7.5×10^5 viable cells/cm^2. After a two-hour incubation period to allow neurons to attach, the medium and unattached cells were removed and replaced by serum-free DMEM/F12 medium with 1% N2 supplement (Invitrogen, Carlsbad, Calif., USA). The cell were then incubated at 37° C. in 5% CO2 in a humidified incubator. After 2–5 days of culture, the neuron cells were used for transfection experiments. Gene delivery complexes were also tested on primary cultures of cortical neurons and glial cells in a similar fashion. […] Four hours later, an equal volume of DMEM-F12/N2 was added. One to two days after transfection, the cell culture medium was removed and the cells were rinsed in phosphate-buffered saline (PBS). Enough Reporter Lysis Buffer (Promega, Wisconsin, Md., USA) to cover the bottom surface was added to each well (50 μl/well for 48-well plates). After one freeze-thaw cycle, the lysates were tested for luciferase activity using the Luciferase Assay System (Promega) and a single-tube luminometer (Berthold Lumat L B 9507, Bad Wildbad, Germany). The total protein concentration of each lysate was determined using the DC Protein assay (Bio-Rad, Hercules, Calif., USA). The results were expressed in relative light units (RLU) per milligram of total protein.

T1 sequence (P35739 33-799): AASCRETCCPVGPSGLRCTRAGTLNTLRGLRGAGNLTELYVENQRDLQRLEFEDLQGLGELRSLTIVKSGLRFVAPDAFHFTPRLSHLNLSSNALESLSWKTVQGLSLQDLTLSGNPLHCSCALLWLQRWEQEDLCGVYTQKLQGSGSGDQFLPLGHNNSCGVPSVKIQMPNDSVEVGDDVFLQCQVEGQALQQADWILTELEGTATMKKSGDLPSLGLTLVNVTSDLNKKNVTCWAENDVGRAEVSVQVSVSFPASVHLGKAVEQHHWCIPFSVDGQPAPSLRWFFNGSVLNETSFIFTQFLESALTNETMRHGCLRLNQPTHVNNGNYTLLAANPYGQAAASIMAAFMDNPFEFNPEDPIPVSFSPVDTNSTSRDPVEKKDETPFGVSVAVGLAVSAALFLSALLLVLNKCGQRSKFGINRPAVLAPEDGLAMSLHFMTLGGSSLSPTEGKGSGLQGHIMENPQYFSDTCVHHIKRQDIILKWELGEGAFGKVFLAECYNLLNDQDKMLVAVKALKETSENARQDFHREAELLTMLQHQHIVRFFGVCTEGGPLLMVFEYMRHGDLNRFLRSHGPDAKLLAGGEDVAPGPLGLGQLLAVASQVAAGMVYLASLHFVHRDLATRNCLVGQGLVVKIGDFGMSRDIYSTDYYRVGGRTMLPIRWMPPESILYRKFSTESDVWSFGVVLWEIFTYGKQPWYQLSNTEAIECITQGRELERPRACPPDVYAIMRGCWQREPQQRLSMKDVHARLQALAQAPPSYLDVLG

Molecule | activation (phosphorylation) of TrkA (TrkA; 5 μM peptide, 20 min) | activity when complexed with DNA (TrkA; NL4-10K/DNA complexes (N/P ratio of 5)) | activation (phosphorylation) of Erk 1 and Erk 2 (Erk1 and Erk2; 5 μM peptide, 20 min) | luciferase gene expression in DRG relative to PEI600/pCAGluc/10K ([1]; 3 μg pCAGluc, PEI600 N/P 5, peptide N/P 5, intralumbar) | gene transfer efficiency relative to the non-targeted control (10K) (primary cortical neurons; peptide/DNA 0.75 nmol/μg (N/P ratio of 2.5), chloroquine) [fold] | activation of TrkA (phospho-TrkA Western blot) (TrkA; 8 μM, 20 min) | Erk1 and Erk2 activation compared with (SPKR)4 control (Erk1 and Erk2; 1–8 μM, 15 min) | transgene expression in lumbar DRG relative to PEI600/pCAGluc control ([1]; 4 μg pCAGluc, PEI600 N/P 5, 32 nmol peptide, intrathecal) | effectiveness of triple complexes relative to (SPKR)4 triple complexes (primary cortical neurons; 0.25 μg/well pCAGluc, PEI600, 24 h)
CTTTHTFVKALTMDGKQAAWRFIRIDTACKKKKKKKKKK (CTTTHTFVKALTMDGKQAAWRFIRIDTACKKKKKKKKKK; disulfide 1-29) [NL4-10K] | induced activation | retained its activity | induced activation | twice as high | 22 | – | – | – | –
SPKR4NL1-2: chimeric protein: (SPKR)4 DNA-binding domain, α-helical linker, targeting domain with loops 1 and 2 of NGF (aa 17–67), His10 tag (protein, SPKR4NL1-2) MGHHHHHHHHHHSSGHIEGRHMSPKRSPKRSPKRSPKRGGTYLSEDELKAAEAAFKRHNPTGSCSVSVWVGDKTTATDIKGKEVMVLGEVNINNSVFKQYFFETKCRDPNPVDSG | – | – | – | – | – | activates TrkA | higher level of Erk1 and Erk2 activation | nine times | nine times

Source: patent publication US7205387B2, “Recombinant polypeptide useful for neurotrophin receptor mediated gene delivery and as neurotrophin agonist” (Agency for Science, Technology and Research, priority 2003, dated 2007)
